T1: MST1(h) (human, UniProt Q13043 1-487)
T1 sequence (looked up): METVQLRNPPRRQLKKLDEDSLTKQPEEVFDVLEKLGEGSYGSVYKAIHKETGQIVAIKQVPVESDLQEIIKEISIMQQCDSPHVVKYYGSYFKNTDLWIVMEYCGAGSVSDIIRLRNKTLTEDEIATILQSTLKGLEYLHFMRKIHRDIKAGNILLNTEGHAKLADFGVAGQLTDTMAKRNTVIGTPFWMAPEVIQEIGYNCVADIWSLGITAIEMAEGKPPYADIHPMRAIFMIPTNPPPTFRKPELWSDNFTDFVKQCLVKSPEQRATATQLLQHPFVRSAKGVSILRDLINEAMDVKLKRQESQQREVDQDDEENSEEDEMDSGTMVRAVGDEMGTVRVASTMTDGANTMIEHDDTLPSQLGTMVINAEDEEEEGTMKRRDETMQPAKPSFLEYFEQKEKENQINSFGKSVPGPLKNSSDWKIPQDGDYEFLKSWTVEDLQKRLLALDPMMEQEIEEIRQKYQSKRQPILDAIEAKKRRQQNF

T2: IKKα(h) (human, UniProt O15111 1-745)
T2 sequence (looked up): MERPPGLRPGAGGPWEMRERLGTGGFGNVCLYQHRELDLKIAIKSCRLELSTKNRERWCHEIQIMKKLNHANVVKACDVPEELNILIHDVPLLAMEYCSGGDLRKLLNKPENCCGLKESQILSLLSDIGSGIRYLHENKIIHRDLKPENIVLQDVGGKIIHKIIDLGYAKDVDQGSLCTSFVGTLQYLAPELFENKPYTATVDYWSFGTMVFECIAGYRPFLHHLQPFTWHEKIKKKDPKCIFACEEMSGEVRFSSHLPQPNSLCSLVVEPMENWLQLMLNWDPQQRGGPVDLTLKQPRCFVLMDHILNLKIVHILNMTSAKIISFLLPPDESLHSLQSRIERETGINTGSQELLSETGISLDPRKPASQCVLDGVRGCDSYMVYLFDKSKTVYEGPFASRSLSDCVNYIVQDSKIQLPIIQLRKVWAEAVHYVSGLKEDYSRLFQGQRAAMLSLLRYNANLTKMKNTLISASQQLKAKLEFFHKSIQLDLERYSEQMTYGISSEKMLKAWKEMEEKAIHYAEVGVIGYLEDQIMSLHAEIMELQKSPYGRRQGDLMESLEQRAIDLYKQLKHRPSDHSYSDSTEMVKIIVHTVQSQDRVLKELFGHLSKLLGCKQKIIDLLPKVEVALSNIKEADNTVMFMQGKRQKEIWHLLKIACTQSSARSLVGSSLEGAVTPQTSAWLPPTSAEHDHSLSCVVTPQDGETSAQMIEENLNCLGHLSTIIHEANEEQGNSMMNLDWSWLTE

T3: PKD2(h) (human, UniProt Q9BZL6 1-878)
T3 sequence (looked up): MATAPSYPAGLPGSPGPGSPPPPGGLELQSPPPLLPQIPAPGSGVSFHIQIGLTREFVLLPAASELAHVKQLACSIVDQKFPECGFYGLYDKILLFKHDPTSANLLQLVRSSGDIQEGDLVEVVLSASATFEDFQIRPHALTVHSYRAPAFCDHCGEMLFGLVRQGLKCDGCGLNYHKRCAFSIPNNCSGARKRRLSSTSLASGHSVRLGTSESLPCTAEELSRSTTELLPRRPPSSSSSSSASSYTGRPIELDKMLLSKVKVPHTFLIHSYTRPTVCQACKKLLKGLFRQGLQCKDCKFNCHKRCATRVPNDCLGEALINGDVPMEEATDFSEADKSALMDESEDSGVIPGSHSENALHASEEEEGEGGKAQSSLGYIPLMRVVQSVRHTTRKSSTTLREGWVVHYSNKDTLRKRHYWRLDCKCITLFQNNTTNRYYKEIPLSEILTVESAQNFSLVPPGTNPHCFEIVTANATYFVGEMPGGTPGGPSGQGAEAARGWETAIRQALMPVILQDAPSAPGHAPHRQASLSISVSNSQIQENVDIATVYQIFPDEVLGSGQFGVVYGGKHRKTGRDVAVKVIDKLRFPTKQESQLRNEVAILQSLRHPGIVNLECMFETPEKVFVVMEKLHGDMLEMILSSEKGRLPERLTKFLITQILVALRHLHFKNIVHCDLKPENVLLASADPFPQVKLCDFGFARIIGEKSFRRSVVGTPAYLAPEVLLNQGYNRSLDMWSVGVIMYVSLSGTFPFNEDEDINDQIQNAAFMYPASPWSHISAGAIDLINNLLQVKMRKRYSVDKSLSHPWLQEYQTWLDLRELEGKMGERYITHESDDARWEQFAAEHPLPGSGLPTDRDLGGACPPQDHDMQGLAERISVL


Columns and labels:
Test in all cases: cell-based or functional assay
MST1(h) = molecular target: T1, MST1(h)
Lck(h) activated = Lck(h) activated (human, UniProt P06239 1-509)
Arg(h) = Arg(h) (human, UniProt P42684 38-1182, limits assumed)
FGFR4(h) = FGFR4(h) (human, UniProt P22455 460-802, limits assumed)
PKCα(h) = PKCα(h) (human, UniProt P17252 1-672)
IKKα(h) = molecular target: T2, IKKα(h)
Rsk2(h) = Rsk2(h) (human, UniProt P51812 1-740)
PKD2(h) = molecular target: T3, PKD2(h)
SAPK2a(T106M)(h) = SAPK2a(T106M)(h) (human, UniProt Q16539 1-360)
cKit(V654A)(h) = cKit(V654A)(h) (human, UniProt P10721 544-976)
Sequence of cKit(V654A)(h) (P10721 544-976 V654A): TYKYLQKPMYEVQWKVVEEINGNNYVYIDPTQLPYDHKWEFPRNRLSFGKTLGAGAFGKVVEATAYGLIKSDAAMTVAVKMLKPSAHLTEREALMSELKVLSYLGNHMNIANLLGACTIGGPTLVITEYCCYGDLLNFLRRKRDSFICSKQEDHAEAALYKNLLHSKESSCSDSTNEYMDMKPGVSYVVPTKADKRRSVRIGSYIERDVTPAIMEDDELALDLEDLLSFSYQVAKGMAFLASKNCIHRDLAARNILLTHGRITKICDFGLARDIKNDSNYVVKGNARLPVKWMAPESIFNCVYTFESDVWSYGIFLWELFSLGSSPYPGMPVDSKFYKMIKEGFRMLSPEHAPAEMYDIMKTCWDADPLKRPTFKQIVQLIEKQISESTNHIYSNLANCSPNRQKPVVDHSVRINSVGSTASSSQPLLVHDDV

Sequence of Lck(h) activated (P06239 whole entry): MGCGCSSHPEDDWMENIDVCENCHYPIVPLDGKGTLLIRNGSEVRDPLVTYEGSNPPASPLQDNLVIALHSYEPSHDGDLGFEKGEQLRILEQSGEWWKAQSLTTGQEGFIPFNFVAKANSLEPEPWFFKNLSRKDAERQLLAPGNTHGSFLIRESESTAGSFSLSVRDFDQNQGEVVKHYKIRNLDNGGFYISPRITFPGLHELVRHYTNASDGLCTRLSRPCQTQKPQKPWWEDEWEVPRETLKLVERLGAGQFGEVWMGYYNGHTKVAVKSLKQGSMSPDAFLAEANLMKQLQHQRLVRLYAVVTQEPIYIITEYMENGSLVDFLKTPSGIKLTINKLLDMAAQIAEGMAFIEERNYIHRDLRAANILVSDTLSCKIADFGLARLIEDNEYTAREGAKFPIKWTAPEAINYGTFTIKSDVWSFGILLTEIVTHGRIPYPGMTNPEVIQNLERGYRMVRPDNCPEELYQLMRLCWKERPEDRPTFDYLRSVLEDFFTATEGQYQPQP
Sequence of Arg(h) (P42684 38-1182 limits assumed): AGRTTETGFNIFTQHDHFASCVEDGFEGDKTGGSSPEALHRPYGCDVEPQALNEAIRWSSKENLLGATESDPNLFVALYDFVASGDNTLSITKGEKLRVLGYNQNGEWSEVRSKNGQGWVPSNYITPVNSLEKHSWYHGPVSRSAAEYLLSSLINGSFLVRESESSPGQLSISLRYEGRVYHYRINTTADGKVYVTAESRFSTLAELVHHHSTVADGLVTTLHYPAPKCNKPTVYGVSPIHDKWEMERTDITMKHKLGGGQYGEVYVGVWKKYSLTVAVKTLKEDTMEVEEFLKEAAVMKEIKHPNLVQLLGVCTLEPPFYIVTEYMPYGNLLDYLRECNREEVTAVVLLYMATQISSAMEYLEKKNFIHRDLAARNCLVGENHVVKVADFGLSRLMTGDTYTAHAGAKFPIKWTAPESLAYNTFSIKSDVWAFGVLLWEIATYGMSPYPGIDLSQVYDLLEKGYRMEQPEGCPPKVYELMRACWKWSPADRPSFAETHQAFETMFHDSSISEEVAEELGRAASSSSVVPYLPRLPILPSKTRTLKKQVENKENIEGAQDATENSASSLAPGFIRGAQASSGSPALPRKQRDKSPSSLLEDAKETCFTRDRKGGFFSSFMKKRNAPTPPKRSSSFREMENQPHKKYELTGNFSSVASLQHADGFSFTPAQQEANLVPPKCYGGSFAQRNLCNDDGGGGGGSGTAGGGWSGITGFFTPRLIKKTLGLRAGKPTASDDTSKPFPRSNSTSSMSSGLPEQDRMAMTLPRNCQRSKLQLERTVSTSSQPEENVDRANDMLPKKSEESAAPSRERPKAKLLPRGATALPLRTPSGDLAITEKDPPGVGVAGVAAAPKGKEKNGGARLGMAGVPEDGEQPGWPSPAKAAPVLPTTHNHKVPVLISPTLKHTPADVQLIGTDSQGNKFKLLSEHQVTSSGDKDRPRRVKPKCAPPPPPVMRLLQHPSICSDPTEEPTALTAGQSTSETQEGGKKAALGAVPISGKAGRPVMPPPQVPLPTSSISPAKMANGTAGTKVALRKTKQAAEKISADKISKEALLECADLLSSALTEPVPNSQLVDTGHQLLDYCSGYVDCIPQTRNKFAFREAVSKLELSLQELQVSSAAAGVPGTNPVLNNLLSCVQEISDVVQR
Sequence of SAPK2a(T106M)(h) (Q16539 whole entry T106M): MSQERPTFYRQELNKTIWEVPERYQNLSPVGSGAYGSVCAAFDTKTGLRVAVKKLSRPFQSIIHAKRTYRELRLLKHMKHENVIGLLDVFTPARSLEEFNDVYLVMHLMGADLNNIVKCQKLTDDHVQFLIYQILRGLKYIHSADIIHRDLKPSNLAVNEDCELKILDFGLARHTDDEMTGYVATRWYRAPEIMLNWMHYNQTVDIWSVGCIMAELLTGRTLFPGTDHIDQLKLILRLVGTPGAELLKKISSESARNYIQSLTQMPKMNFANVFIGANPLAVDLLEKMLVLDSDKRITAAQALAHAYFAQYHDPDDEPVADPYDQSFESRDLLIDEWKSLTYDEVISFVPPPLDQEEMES
Sequence of FGFR4(h) (P22455 460-802 limits assumed): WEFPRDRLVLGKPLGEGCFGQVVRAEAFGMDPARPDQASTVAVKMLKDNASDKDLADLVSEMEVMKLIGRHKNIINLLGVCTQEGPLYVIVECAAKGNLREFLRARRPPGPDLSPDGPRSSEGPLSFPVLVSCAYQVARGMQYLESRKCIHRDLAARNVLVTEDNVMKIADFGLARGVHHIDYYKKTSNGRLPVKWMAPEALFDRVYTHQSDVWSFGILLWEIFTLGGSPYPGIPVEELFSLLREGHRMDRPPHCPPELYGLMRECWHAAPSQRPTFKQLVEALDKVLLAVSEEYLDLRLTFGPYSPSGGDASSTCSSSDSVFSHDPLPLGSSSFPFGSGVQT
Sequence of Rsk2(h) (P51812 whole entry): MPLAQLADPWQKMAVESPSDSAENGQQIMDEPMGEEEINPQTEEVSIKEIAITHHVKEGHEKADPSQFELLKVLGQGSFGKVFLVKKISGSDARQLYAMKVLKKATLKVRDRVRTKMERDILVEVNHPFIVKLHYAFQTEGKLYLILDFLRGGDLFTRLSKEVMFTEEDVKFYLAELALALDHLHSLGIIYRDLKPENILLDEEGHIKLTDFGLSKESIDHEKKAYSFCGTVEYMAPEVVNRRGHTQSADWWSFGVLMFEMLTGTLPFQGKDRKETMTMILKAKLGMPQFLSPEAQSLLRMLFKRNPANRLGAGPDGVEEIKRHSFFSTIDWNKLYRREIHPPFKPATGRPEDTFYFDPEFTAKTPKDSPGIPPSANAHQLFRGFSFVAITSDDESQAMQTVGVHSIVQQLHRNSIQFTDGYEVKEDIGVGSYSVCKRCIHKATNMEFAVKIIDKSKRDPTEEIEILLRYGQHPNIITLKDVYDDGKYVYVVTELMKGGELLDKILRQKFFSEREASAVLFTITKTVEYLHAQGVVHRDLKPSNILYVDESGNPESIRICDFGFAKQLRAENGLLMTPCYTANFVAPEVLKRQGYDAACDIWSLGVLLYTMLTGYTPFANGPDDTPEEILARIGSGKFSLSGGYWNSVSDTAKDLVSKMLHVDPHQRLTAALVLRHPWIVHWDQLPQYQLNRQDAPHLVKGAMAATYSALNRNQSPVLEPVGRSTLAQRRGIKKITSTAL

Binder | % activity, 100 µM (MST1(h)) [%] | % activity, 100 µM (Lck(h) activated) [%] | % activity, 100 µM (Arg(h)) [%] | % activity, 100 µM (FGFR4(h)) [%] | % activity, 100 µM (PKCα(h)) [%] | % activity, 100 µM (IKKα(h)) [%] | % activity, 100 µM (Rsk2(h)) [%] | % activity, 100 µM (PKD2(h)) [%] | % activity, 100 µM (SAPK2a(T106M)(h)) [%] | % activity, 100 µM (cKit(V654A)(h)) [%]
FAKLAARLYRKALARQLGVAA [MMI-0300] | 14 | 243 | 72 | 28 | 89 | 93 | 51 | 33 | 97 | 134
KAFAKLAARLYRKALARQLGVAA [MMI-0400] | 6 | 216 | 84 | 19 | 86 | 87 | 38 | 25 | 99 | 150

— patent publication US20140072613A1 (published 2014)
